From patent US20100068807

Target: GST fusion IRF7 (GST fused to amino acids 422-457 of mouse IRF-7, from pGST-IRF7) [GST: P08515]

B1: 6myc-mIKKα (wild-type mouse IKKα with 6 myc tags, expressed from pSRα-6myc-mIKKα in 293T cells) (protein)
chain: MERPPGLRPGAGGPWEMRERLGTGGFGNVSLYQHRELDLKIAIKSCRLELSSKNRERWCHEIQIMKKLDHANVVKACDVPEELNFLINDVPLLAMEYCSGGDLRKLLNKPENCCGLKESQILSLLSDIGSGIRYLHENKIIHRDLKPENIVLQDVGGKTIHKIIDLGYAKDVDQGSLCTSFVGTLQYLAPELFENKPYTATVDYWSFGTMVFECIAGYRPFLHHLQPFTWHEKIKKKDPKCIFACEEMTGEVRFSSHLPQPNSLCSLIVEPMESWLQLMLNWDPQQRGGPIDLTLKQPRCFALMDHILNLKIVHILNMTSAKIISFLLPCDESLHSLQSRIERETGINTGSQELLSETGISLDPRKPASQCVLDGVRGCDSYMVYLFDKSKTVYEGPFASRSLSDCVNYIVQDSKIQLPIIQLRKVWAEAVHYVSGLKEDYSRLFQGQRAAMLSLLRYNANLTKMKNTLISASQQLKAKLEFFRKSIQLDLERYSEQMTYGISSEKMLKAWKEMEEKAIHYSEVGVIGYLEDQIMSLHTEIMELQKSPYGRRQGDLMESLEQRAIDLYKQLKHRPPDHLYSDSTEMVKIIVHTVQSQDRVLKELFGHLSKLLGCKQKIIDLLPKVEVALSNIKEADNTVMFMQGKRQKEIWHLLKIACTQSSARSLVGSSLEGTVTPPVSAWLPPTLADREHPLTCVVTPQDGETLAQMIEENLNCLGHLSTIIREANEDQSSSLMSLDWSWLAE
phosphorylation of substrate (in vitro kinase assay with [γ-32P]ATP, SDS-PAGE and autoradiography): IRF7 was phosphorylated by IKKα
